Data published in patent US20260116991A1.

What was measured:
[1] = target: monkey GPC3 on HEK293T-monkey GPC3 cells (monkey); experiment: FACS on HEK293T-monkey GPC3 cells
[2] = target: monkey GPC3-His protein (monkey); experiment: ELISA, monkey GPC3-His coated; antibody 0.02 nM
[3] = target: monkey GPC3-His protein (monkey); experiment: ELISA, monkey GPC3-His coated; antibody 0.11 nM
[4] = target: monkey GPC3-His protein (monkey); experiment: ELISA, monkey GPC3-His coated; antibody 0.53 nM
[5] = target: monkey GPC3-His protein (monkey); experiment: ELISA, monkey GPC3-His coated; antibody 2.67 nM
[6] = target: monkey GPC3-His protein (monkey); experiment: ELISA, monkey GPC3-His coated; antibody 0.004 nM
[7] = target: monkey GPC3-His protein (monkey); experiment: ELISA, monkey GPC3-His coated; antibody 13.33 nM
[8] = target: monkey GPC3-His protein (monkey); experiment: ELISA, monkey GPC3-His coated; antibody 66.66 nM
[9] = target: monkey GPC3-His protein (monkey); experiment: ELISA, monkey GPC3-His coated; antibody 0.0008 nM
[10] = target: murine GPC3-his protein (Sino Biological, Cat. No. 50989-M08B) (murine) (UniProt Q8CFZ4); experiment: ELISA, coated murine GPC3-His
Chain of murine GPC3-his protein (Sino Biological, Cat. No. 50989-M08B) (murine) (Q8CFZ4 25-558 limits assumed): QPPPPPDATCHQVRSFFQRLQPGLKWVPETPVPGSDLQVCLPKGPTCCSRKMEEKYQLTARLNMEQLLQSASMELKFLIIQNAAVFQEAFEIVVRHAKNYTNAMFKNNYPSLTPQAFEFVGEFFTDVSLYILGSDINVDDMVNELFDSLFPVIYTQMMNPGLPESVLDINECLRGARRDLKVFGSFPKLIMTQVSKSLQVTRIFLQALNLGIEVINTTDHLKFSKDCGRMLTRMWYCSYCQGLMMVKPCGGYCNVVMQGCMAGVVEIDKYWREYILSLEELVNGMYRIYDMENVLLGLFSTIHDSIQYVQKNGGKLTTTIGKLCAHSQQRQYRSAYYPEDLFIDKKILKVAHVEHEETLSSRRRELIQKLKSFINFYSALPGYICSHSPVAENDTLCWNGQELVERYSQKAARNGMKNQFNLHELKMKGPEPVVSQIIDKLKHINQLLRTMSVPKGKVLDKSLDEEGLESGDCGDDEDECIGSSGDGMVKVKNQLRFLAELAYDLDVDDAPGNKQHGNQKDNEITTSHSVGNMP

Row | Binder | EC50 [1] [nM] | Max MFI [1] [MFI] | OD450 nm [2] | OD450 nm [3] | OD450 nm [4] | OD450 nm [5] | OD450 nm [6] | OD450 nm [7] | OD450 nm [8] | OD450 nm [9] | OD450 at 0.0001 nM antibody [10] [OD450 nm] | OD450 at 0.001 nM antibody [10] [OD450 nm] | OD450 at 0.01 nM antibody [10] [OD450 nm] | OD450 at 0.1 nM antibody [10] [OD450 nm] | OD450 at 1 nM antibody [10] [OD450 nm] | OD450 at 10 nM antibody [10] [OD450 nm] | OD450 at 100 nM antibody [10] [OD450 nm]
1 | hAb006LH3L1 (antibody, human IgG1, V domains shown) VH: EVQLVQSGAEVKKPGSSVKVSCKASGYTFTDYEIHWVRQAPGQGLEWMGAIDPKTGNTAYNQKFMGRVTLTADKSTSTAYMELSSLRSEDTAVYYCTRYFSFAYWGQGTLVTVSS VL: DIVMTQTPLSLPVTPGEPASISCRSSQTFVHSNGNTYLQWYLQKPGQSPQLLIYKVSNRFSGVPDRFSGSGSGTDFTLKISRVEAEDVGVYYCFQGSHVPYTFGQGTKLEIK | 1.7 | 34600 | 0.911 | 1.75 | 2.1 | 2.36 | 0.294 | 2.44 | 2.52 | 0.116 | – | – | – | – | – | – | –
2 | hAb005LH3L1a (antibody, human IgG1, V domains shown) VH: EVQLVQSGAEVKKPGASVKVSCKASGYTFTDYEMHWVRQAPGQGLEWIGAIDPETGNTAYIQKFKGRATLTTDKSTSTAYMELRSLRSDDTAVYYCTRFYSYSHWGQGTTVTVSS VL: DIVMTQTPLSLPVTPGEPASISCRSSQSLVHSDGNTYLHWYLQKPGQSPQLLIYKVSNRFSGVPDRFSGSGSGTDFTLKISRVEAEDVGVYYCSQNTHVPPTFGGGTKVEIK | 112 | 2920 | 0.039 | 0.038 | 0.042 | 0.098 | 0.041 | 0.161 | 0.527 | 0.04 | – | – | – | – | – | – | –
3 | hAb005LH3L1 (antibody, human IgG1, V domains shown) VH: EVQLVQSGAEVKKPGASVKVSCKASGYTFTDYEMHWVRQAPGQGLEWIGAIDPETGNTAYIQKFKGRATLTTDKSTSTAYMELRSLRSDDTAVYYCTRFYSYSHWGQGTTVTVSS VL: DIVMTQTPLSLPVTPGEPASISCRSSQSLVHSNGNTYLHWYLQKPGQSPQLLIYKVSNRFSGVPDRFSGSGSGTDFTLKISRVEAEDVGVYYCSQNTHVPPTFGGGTKVEIK | 3.09 | 22200 | 0.609 | 0.997 | 1.15 | 1.27 | 0.226 | 1.13 | 1.24 | 0.088 | – | – | – | – | – | – | –
4 | hAb006LH1L1 (antibody, human IgG1, V domains shown) VH: EVQLVQSGAEVKKPGSSVKVSCKASGYTFSDYEIHWVRQAPGQGLEWMGAIDPKTGNTAYNQKFMGRVTITADKSTSTAYMELSSLRSEDTAVYYCTRYFSFAYWGQGTLVTVSS VL: DIVMTQTPLSLPVTPGEPASISCRSSQTFVHSNGNTYLQWYLQKPGQSPQLLIYKVSNRFSGVPDRFSGSGSGTDFTLKISRVEAEDVGVYYCFQGSHVPYTFGQGTKLEIK | 1.53 | 33500 | 1.1 | 2.02 | 2.5 | 2.43 | 0.369 | 2.56 | 2.48 | 0.121 | – | – | – | – | – | – | –
5 | hAb005LH2L1 (antibody, human IgG1, V domains shown) VH: EVQLVQSGAEVKKPGASVKVSCKASGYTFTDYEMHWVRQAPGQGLEWMGAIDPETGNTAYIQKFKGRVTLTTDKSTSTAYMELRSLRSDDTAVYYCTRFYSYSHWGQGTTVTVSS VL: DIVMTQTPLSLPVTPGEPASISCRSSQSLVHSNGNTYLHWYLQKPGQSPQLLIYKVSNRFSGVPDRFSGSGSGTDFTLKISRVEAEDVGVYYCSQNTHVPPTFGGGTKVEIK | 2.88 | 23400 | 0.649 | 1.13 | 1.28 | 1.24 | 0.222 | 1.15 | 1.2 | 0.164 | – | – | – | – | – | – | –
6 | hAb005LH3L1b (antibody, human IgG1, V domains shown) VH: EVQLVQSGAEVKKPGASVKVSCKASGYTFTDYEMHWVRQAPGQGLEWIGAIDPETGNTAYIQKFKGRATLTTDKSTSTAYMELRSLRSDDTAVYYCTRFYSYSHWGQGTTVTVSS VL: DIVMTQTPLSLPVTPGEPASISCRSSQSLVHSNRNTYLHWYLQKPGQSPQLLIYKVSNRFSGVPDRFSGSGSGTDFTLKISRVEAEDVGVYYCSQNTHVPPTFGGGTKVEIK | 2.37 | 22100 | 0.663 | 1.11 | 1.27 | 1.33 | 0.237 | 1.27 | 1.18 | 0.088 | – | – | – | – | – | – | –
7 | F1.57.21 human-murine chimeric antibody (antibody, human IgG1, kappa, V domains shown) VH: QVQLQQSGAELARPGASVKLSCKASGYTFTSYGISWVKQITGQGLEWIGEIYPRSESTYYNEKFKGKATLTADKSSSTAYMELRSLTSEDSAVYFCARDYGNIYSFAYWGQGTLVTVSA VL: DIQMTQSPASLSASVGETVTITCRTSENIYSYLAWYQQKQGKSPQLLVYNAKTLAEGVPSRFSGSGSGTQFSLKINSLQPEDFGSYYCQHHYGTPLTFGAGTKLELKR | – | – | – | – | – | – | – | – | – | – | 0.05 | 0.06 | 0.07 | 0.13 | 0.2 | 0.79 | 0.65

The remaining binders from weak to strong by EC50 [1], led by results:

Row | EC50 [1] [nM] | Max MFI [1] [MFI] | OD450 nm [2] | OD450 nm [3] | OD450 nm [4] | OD450 nm [5] | OD450 nm [6] | OD450 nm [7] | OD450 nm [8] | OD450 nm [9] | OD450 at 0.0001 nM antibody [10] [OD450 nm] | OD450 at 0.001 nM antibody [10] [OD450 nm] | OD450 at 0.01 nM antibody [10] [OD450 nm] | OD450 at 0.1 nM antibody [10] [OD450 nm] | OD450 at 1 nM antibody [10] [OD450 nm] | OD450 at 10 nM antibody [10] [OD450 nm] | OD450 at 100 nM antibody [10] [OD450 nm] | Binder
8 | 71.6 | 2910 | 0.039 | 0.066 | 0.053 | 0.111 | 0.045 | 0.195 | 0.578 | 0.06 | – | – | – | – | – | – | – | hAb005LH1L1a (antibody, human IgG1, V domains shown) VH: EVQLVQSGAEVKKPGASVKVSCKASGYTFTDYEMHWVRQAPGQGLEWMGAIDPETGNTAYIQKFKGRVTMTTDKSTSTAYMELRSLRSDDTAVYYCTRFYSYSHWGQGTTVTVSS VL: DIVMTQTPLSLPVTPGEPASISCRSSQSLVHSDGNTYLHWYLQKPGQSPQLLIYKVSNRFSGVPDRFSGSGSGTDFTLKISRVEAEDVGVYYCSQNTHVPPTFGGGTKVEIK
9 | 32.8 | 3490 | 0.041 | 0.042 | 0.056 | 0.136 | 0.04 | 0.276 | 0.652 | 0.099 | – | – | – | – | – | – | – | hAb005LH2L1a (antibody, human IgG1, V domains shown) VH: EVQLVQSGAEVKKPGASVKVSCKASGYTFTDYEMHWVRQAPGQGLEWMGAIDPETGNTAYIQKFKGRVTLTTDKSTSTAYMELRSLRSDDTAVYYCTRFYSYSHWGQGTTVTVSS VL: DIVMTQTPLSLPVTPGEPASISCRSSQSLVHSDGNTYLHWYLQKPGQSPQLLIYKVSNRFSGVPDRFSGSGSGTDFTLKISRVEAEDVGVYYCSQNTHVPPTFGGGTKVEIK
10 | 14.8 | 37800 | 0.707 | 1.74 | 2.31 | 2.47 | 0.253 | 2.47 | 2.57 | 0.101 | – | – | – | – | – | – | – | hAb007LH2L1 (antibody, human IgG1, V domains shown) VH: EVQLVQSGAEVKKPGSSVKVSCKASGYTFTDYEMHWVRQAPGQGLEWMGTIDPETGNTAYNQKFKGRVTITADKSTSTAYMELSSLRSEDTAVYYCTRPYSLTYWGQGTLVTVSS VL: DIVMTQTPLSLPVTPGEPASISCRSSQSFVHSNGDTYLQWYLQKPGQSPQLLIYKVSNRFSGVPDRFSGSGSGTDFTLKISRVEAEDVGVYYCFQGSHVPYTFGQGTKLEIK
11 | 13.7 | 35900 | 0.252 | 0.801 | 1.95 | 2.37 | 0.103 | 2.47 | 2.58 | 0.069 | – | – | – | – | – | – | – | hAb007LH3L1b (antibody, human IgG1, V domains shown) VH: EVQLVQSGAEVKKPGSSVKVSCKASGYTFTDYEMHWVRQAPGQGLEWMGTIDPETGNTAYNQKFKGRVTLTADKSTSTAYMELSSLRSEDTAVYYCTRPYSLTYWGQGTLVTVSS VL: DIVMTQTPLSLPVTPGEPASISCRSSQSFVHSNRDTYLQWYLQKPGQSPQLLIYKVSNRFSGVPDRFSGSGSGTDFTLKISRVEAEDVGVYYCFQGSHVPYTFGQGTKLEIK
12 | 13.6 | 37400 | 0.368 | 1.12 | 2.17 | 2.39 | 0.198 | 2.39 | 2.55 | 0.079 | – | – | – | – | – | – | – | hAb007LH3L1 (antibody, human IgG1, V domains shown) VH: EVQLVQSGAEVKKPGSSVKVSCKASGYTFTDYEMHWVRQAPGQGLEWMGTIDPETGNTAYNQKFKGRVTLTADKSTSTAYMELSSLRSEDTAVYYCTRPYSLTYWGQGTLVTVSS VL: DIVMTQTPLSLPVTPGEPASISCRSSQSFVHSNGDTYLQWYLQKPGQSPQLLIYKVSNRFSGVPDRFSGSGSGTDFTLKISRVEAEDVGVYYCFQGSHVPYTFGQGTKLEIK
13 | 2.17 | 23400 | 0.594 | 0.94 | 1.16 | 1.21 | 0.103 | 1.22 | 1.1 | 0.069 | – | – | – | – | – | – | – | hAb005LH1L1 (antibody, human IgG1, V domains shown) VH: EVQLVQSGAEVKKPGASVKVSCKASGYTFTDYEMHWVRQAPGQGLEWMGAIDPETGNTAYIQKFKGRVTMTTDKSTSTAYMELRSLRSDDTAVYYCTRFYSYSHWGQGTTVTVSS VL: DIVMTQTPLSLPVTPGEPASISCRSSQSLVHSNGNTYLHWYLQKPGQSPQLLIYKVSNRFSGVPDRFSGSGSGTDFTLKISRVEAEDVGVYYCSQNTHVPPTFGGGTKVEIK
